Positions of bridges follow the written chain, without caps; N, C: chain ends. Non-standard residues stand in square brackets, D forms with d. ABM2 = diphenyl-cyclohexanol phosphate ester hexanoic acid tag; Trp(1-Me) = Cn1cc(C[C@H](N)C(=O)O)c2ccccc21; NMeI = CC[C@H](C)[C@H](NC)C(=O)O; Sar = CNCC(=O)O
Tests used:
[1] = target: plasma proteins of C3-depleted serum; experiment: rapid equilibrium dialysis, 5 µM peptide, C3-depleted serum, 37 °C 24 h, UPLC-HDMS
[2] = target: plasma proteins of C3-depleted serum; experiment: rapid equilibrium dialysis, 10 µM peptide, C3-depleted serum, 37 °C 24 h, UPLC-HDMS
[3] = target: plasma proteins of C3-positive serum (C3-depleted serum with 5 µM purified C3 added); experiment: rapid equilibrium dialysis, 10 µM peptide, C3-positive serum (5 µM C3), 37 °C 24 h, UPLC-HDMS
[4] = target: plasma proteins of C3-positive serum (C3-depleted serum with 5 µM purified C3 added); experiment: rapid equilibrium dialysis, 5 µM peptide, C3-positive serum (5 µM C3), 37 °C 24 h, UPLC-HDMS

% bound [1] [%] | % bound [2] [%] | % bound [3] [%] | % bound [4] [%] | Binder
> 99 | > 99 | > 99 | > 99 | ABM2-ICVWQDW[Sar]AHRC[NMeI]-NH2 (disulfide 2-12; not fully specified (residue 4); printed as ABM2-Ile-[Cys-Val-Trp(Me)-Gln-Asp-Trp-Sar-Ala-His-Arg-Cys]-mIle-NH2) [ABM2-Cp20 (ABM2-Ile-[Cys-Val-Trp(Me)-Gln-Asp-Trp-Sar-Ala-His-Arg-Cys]-mIle-NH2)]
7 | 3 | 84 | > 99 | Ac-ICV[Trp(1-Me)]QDW[Sar]AHRC[NMeI]-NH2 (disulfide 2-12; SMILES CC[C@H](C)[C@H](NC(C)=O)C(=O)N[C@H]1CSSC[C@@H](C(=O)N(C)[C@H](C(N)=O)[C@@H](C)CC)NC(=O)[C@H](CCCNC(=N)N)NC(=O)[C@H](Cc2c[nH]cn2)NC(=O)[C@H](C)NC(=O)CN(C)C(=O)[C@H](Cc2c[nH]c3ccccc23)NC(=O)[C@H](CC(=O)O)NC(=O)[C@H](CCC(N)=O)NC(=O)[C@H](Cc2cn(C)c3ccccc23)NC(=O)[C@H](C(C)C)NC1=O) [Cp20 (Ac-Ile-[Cys-Val-Trp(Me)-Gln-Asp-Trp-Sar-Ala-His-Arg-Cys]-mIle-NH2)]
